Results: the supplement of paper PMC10567573

B1: LYSMD4 (parent)
chain: LLQRELAQEDSLNKLALQYGCKVA
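Further: lentivirally expressed fusions sorted by FACS into six bins by GFP to DsRed ratio, PSI derived from sequencing read proportions per bin multiplied by bin number.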

Variants of: B1
Test: protein stability index of a GFP-peptide fusion (GPS, HEK-293T) (PSI 1-6); higher = more stable
Settings: c terminus: a fixed tail appended
Work on LLQRELAQEDSLNKLALQYGCTVA [K22T] yielded a protein stability index of 1.32. In the case of LLQRELAQEDSLNKLALQYGCIVA [K22I], the protein stability index is reported as 1.78. For LLQRELAQEDSLNKLALQYGCDVA [K22D], the protein stability index was 2.08. LLQRELAQEDSLNKLALQYGCGVA [K22G] showed a protein stability index of 2.93. In the case of LLQRELAQEDSLNKLALQYGCEVA [K22E], the protein stability index is reported as 3.75. Work on LLQRELAQEDSLNKLALQYGCQVA [K22Q] yielded a protein stability index of 2.21. LLQRELAQEDSLNKLALQYGCRVA [K22R] showed a protein stability index of 1.29. With LLQRELAQEDSLNKLALQYGCSVA [K22S] the protein stability index was 2.2. In the case of LLQRELAQEDSLNKLALQYGCAVA [K22A], the protein stability index is reported as 2.7. Work on LLQRPLAQEDSLNKLALQYGCKVA [E5P] yielded a protein stability index of 1.99. LLQRVLAQEDSLNKLALQYGCKVA [E5V] showed a protein stability index of 2.88. With LLQRFLAQEDSLNKLALQYGCKVA [E5F] the protein stability index was 3.86. In the case of LLQRRLAQEDSLNKLALQYGCKVA [E5R], the protein stability index is reported as 2.05. In the case of LLQRSLAQEDSLNKLALQYGCKVA [E5S], the protein stability index is reported as 1.87. With LLQRHLAQEDSLNKLALQYGCKVA [E5H] the protein stability index was 1.91. In the case of LLQRALAQEDSLNKLALQYGCKVA [E5A], the protein stability index is reported as 3.05. With LLQRNLAQEDSLNKLALQYGCKVA [E5N] the protein stability index was 1.71. Variant LLQRDLAQEDSLNKLALQYGCKVA [E5D] has a protein stability index of 1.44. With LLQRELAQEDSLNKLAPQYGCKVA [L17P] the protein stability index was 2.98. LLQRELAQEDSLNKLAKQYGCKVA [L17K] gave a protein stability index of 2.5. In the case of LLQRELAQEDSLNKLAHQYGCKVA [L17H], the protein stability index is reported as 2.29. Variant LLQRELAQEDSLNKLAQQYGCKVA [L17Q] has a protein stability index of 2.12. LLQRELAQEDSLNKLAVQYGCKVA [L17V] gave a protein stability index of 2.06. Work on LLQRELAQEDSLNKLAYQYGCKVA [L17Y] yielded a protein stability index of 1.18. With LLQRELAQEDSLNKLALQYQCKVA [G20Q] the protein stability index was 4.53. For LLQRELAQEDSLNKLALQYCCKVA [G20C], the protein stability index was 1.65. With LLQRELAQEDSLNKLALQYECKVA [G20E] the protein stability index was 1.7. In the case of LLQRELAQEDSLNKLALQYACKVA [G20A], the protein stability index is reported as 1.09. For LLQRELAQEDSLNKLALQYWCKVA [G20W], the protein stability index was 3.05. In the case of LLQRELAQEDSLNKLALQYPCKVA [G20P], the protein stability index is reported as 2.66. Work on LLQRELAQEDSLNKLALQYVCKVA [G20V] yielded a protein stability index of 1.31. In the case of LLQRELAQEDSLNKLALQYHCKVA [G20H], the protein stability index is reported as 3.73. In the case of LLQRELAQEDSLNKLALQYMCKVA [G20M], the protein stability index is reported as 3.62. Variant GLQRELAQEDSLNKLALQYGCKVA [L1G] has a protein stability index of 1.52. Variant YLQRELAQEDSLNKLALQYGCKVA [L1Y] has a protein stability index of 2.5. In the case of DLQRELAQEDSLNKLALQYGCKVA [L1D], the protein stability index is reported as 1.96. Variant HLQRELAQEDSLNKLALQYGCKVA [L1H] has a protein stability index of 1.91. Work on TLQRELAQEDSLNKLALQYGCKVA [L1T] yielded a protein stability index of 1.8. With KLQRELAQEDSLNKLALQYGCKVA [L1K] the protein stability index was 1.99. ELQRELAQEDSLNKLALQYGCKVA [L1E] showed a protein stability index of 1.5. WLQRELAQEDSLNKLALQYGCKVA [L1W] showed a protein stability index of 2.31. Variant ALQRELAQEDSLNKLALQYGCKVA [L1A] has a protein stability index of 1.96. Variant FLQRELAQEDSLNKLALQYGCKVA [L1F] has a protein stability index of 1.55. Variant RLQRELAQEDSLNKLALQYGCKVA [L1R] has a protein stability index of 1.6. For LDQRELAQEDSLNKLALQYGCKVA [L2D], the protein stability index was 2.63. LVQRELAQEDSLNKLALQYGCKVA [L2V] gave a protein stability index of 2.29. Work on LNQRELAQEDSLNKLALQYGCKVA [L2N] yielded a protein stability index of 2.04. Variant LCQRELAQEDSLNKLALQYGCKVA [L2C] has a protein stability index of 1.67. With LQQRELAQEDSLNKLALQYGCKVA [L2Q] the protein stability index was 1.86. For LWQRELAQEDSLNKLALQYGCKVA [L2W], the protein stability index was 1.5. Variant LHQRELAQEDSLNKLALQYGCKVA [L2H] has a protein stability index of 1.02. Work on LLQRELAQEDSLNKLALSYGCKVA [Q18S] yielded a protein stability index of 1.74. With LLQRELAQEDSLNKLALNYGCKVA [Q18N] the protein stability index was 3.62. Work on LLQRELAQEDSLNKLALMYGCKVA [Q18M] yielded a protein stability index of 1.72. LLQRELAQEDSLNKLALKYGCKVA [Q18K] gave a protein stability index of 2.42. Work on LLQRELAQEDSLNKLALPYGCKVA [Q18P] yielded a protein stability index of 2.95. Variant LLQRELAQEDSLNKLALEYGCKVA [Q18E] has a protein stability index of 2.65. In the case of LLQRELAQEDSLNKLALQYGEKVA [C21E], the protein stability index is reported as 3.43. LLQRELAQEDSLNKLALQYGGKVA [C21G] gave a protein stability index of 2.66. With LLQRELAQEDSLNKLALQYGMKVA [C21M] the protein stability index was 1.47. In the case of LLQRELAQEDSLNKLALQYGKKVA [C21K], the protein stability index is reported as 2.63. Work on LLQRELAQEDSLNKLALQYGHKVA [C21H] yielded a protein stability index of 2.89. LLQRELAQEDSLNKLALQYGRKVA [C21R] gave a protein stability index of 2.54. Variant LLQRELAQEDSLNKLALQYGVKVA [C21V] has a protein stability index of 1.85. LLQRELAQEDSLNKLALQYGNKVA [C21N] gave a protein stability index of 3.29. LLQRELAQEDSLNKLALQLGCKVA [Y19L] showed a protein stability index of 2.34. Variant LLQRELAQEDSLNKLALQVGCKVA [Y19V] has a protein stability index of 2.02. Work on LLQRELAQEDSLNKLALQPGCKVA [Y19P] yielded a protein stability index of 3.28. LLQRELAQEDSLNKLALQSGCKVA [Y19S] showed a protein stability index of 3.13. LLQRELAQEDSLNKLALQQGCKVA [Y19Q] showed a protein stability index of 3.78. LLQRELAQEDSLNKLALQRGCKVA [Y19R] showed a protein stability index of 1.85. For LLQRELAQEDSLNKLALQAGCKVA [Y19A], the protein stability index was 3.17. In the case of LLQRELAQEDSLNKLALQIGCKVA [Y19I], the protein stability index is reported as 1.59. Variant LLQRELAQEDSLNKLALQCGCKVA [Y19C] has a protein stability index of 1.66. Variant LLQRELAQEDSLNKLALQNGCKVA [Y19N] has a protein stability index of 3.4. LLQRELAQEDSLNKQALQYGCKVA [L15Q] gave a protein stability index of 3.65. For LLQRELAQEDSLNKKALQYGCKVA [L15K], the protein stability index was 3.1. Work on LLQRELAQEDSLNKTALQYGCKVA [L15T] yielded a protein stability index of 2.93. LLQRELAQEDSLNKPALQYGCKVA [L15P] gave a protein stability index of 3.97. Variant LLQRELAQEDSLNKYALQYGCKVA [L15Y] has a protein stability index of 2.27. LLQRELAQEDSLNKVALQYGCKVA [L15V] showed a protein stability index of 1.62. Variant LLQRELAQEDSLNKDALQYGCKVA [L15D] has a protein stability index of 4.51. LLQRELAQEDSLNKCALQYGCKVA [L15C] showed a protein stability index of 2.34. LLQRELAQEDSLNKHALQYGCKVA [L15H] gave a protein stability index of 2.67. In the case of LLMRELAQEDSLNKLALQYGCKVA [Q3M], the protein stability index is reported as 1.65. For LLSRELAQEDSLNKLALQYGCKVA [Q3S], the protein stability index was 3.41. In the case of LLYRELAQEDSLNKLALQYGCKVA [Q3Y], the protein stability index is reported as 1.3. Work on LLPRELAQEDSLNKLALQYGCKVA [Q3P] yielded a protein stability index of 1.41. LLTRELAQEDSLNKLALQYGCKVA [Q3T] gave a protein stability index of 1.27. LLNRELAQEDSLNKLALQYGCKVA [Q3N] showed a protein stability index of 2.3. LLIRELAQEDSLNKLALQYGCKVA [Q3I] gave a protein stability index of 1.46. LLQREKAQEDSLNKLALQYGCKVA [L6K] showed a protein stability index of 2.11. LLQREWAQEDSLNKLALQYGCKVA [L6W] showed a protein stability index of 1.87. Variant LLQREIAQEDSLNKLALQYGCKVA [L6I] has a protein stability index of 1.52.
